According to article PMC6141507, “A plant Bro1 domain protein BRAF regulates multivesicular body biogenesis and membrane protein homeostasis” (Nature Communications, 2018):

Target: T1, His-SUMO-FREE1 (Arabidopsis thaliana, UniProt Q9ASS2 1-601)
T1 construct: FREE1 (FYVE1), Arabidopsis thaliana, locus AT1G20110; also called Sumo-tagged FREE1; not shown: His, N-terminal, kept; SUMO, N-terminal, kept
T1 sequence (looked up): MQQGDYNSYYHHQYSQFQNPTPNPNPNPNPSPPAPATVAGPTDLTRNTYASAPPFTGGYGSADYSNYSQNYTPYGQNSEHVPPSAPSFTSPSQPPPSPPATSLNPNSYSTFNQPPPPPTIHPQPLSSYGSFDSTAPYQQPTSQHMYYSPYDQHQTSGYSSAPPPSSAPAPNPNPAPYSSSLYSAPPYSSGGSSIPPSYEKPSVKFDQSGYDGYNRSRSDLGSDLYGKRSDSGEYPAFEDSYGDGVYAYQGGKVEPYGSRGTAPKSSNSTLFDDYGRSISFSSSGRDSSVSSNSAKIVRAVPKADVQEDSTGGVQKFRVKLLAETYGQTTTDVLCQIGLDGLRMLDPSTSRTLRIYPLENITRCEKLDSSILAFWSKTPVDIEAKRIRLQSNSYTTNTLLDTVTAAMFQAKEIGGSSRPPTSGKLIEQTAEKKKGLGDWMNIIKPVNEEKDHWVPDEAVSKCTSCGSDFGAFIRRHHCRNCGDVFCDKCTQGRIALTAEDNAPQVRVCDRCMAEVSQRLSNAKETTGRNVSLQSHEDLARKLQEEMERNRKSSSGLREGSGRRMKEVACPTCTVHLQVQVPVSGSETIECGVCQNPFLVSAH
Assay: pull-down; competition: in vitro binding assay on amylose resin bound with MBP-Vps23A (or the Vps23A CC domain as bait) with a constant amount of one His-SUMO protein (30 pmol BRAF) and 10, 30, 100 or 300 pmol of the competing His-SUMO protein; immunoblot, quantified
Conditions: both partners purified

binding result: binds
B1: MBP-Vps23A (natural protein, Arabidopsis thaliana, UniProt Q9LHG8 1-398, looked up)
chain: MVPPPSNPQQVQQFLSSALSQRGPSSVPYEESNKWLIRQHLLNLISSYPSLEPKTASFMHNDGRSVNLLQADGTIPMPFHGVTYNIPVIIWLLESYPRHPPCVYVNPTADMIIKRPHAHVTPSGLVSLPYLQNWVYPSSNLVDLVSDLSAAFARDPPLYSRRRPQPPPPSPPTVYDSSLSRPPSADQSLPRPFPPSPYGGGVSRVQVQHVHHQQQSDDAAEVFKRNAINKMVEMVHSDLVSMRRAREAEAEELLSLQAGLKRREDELNIGLKEMVEEKETLEQQLQIISMNTDILDSWVRENQGKTKNLVDLDVDNAFECGDTLSKQMLECTALDLAIEDAIYSLDKSFQDGVVPFDQYLRNVRLLSREQFFHRATGSKVRAAQMEVQVAAIAGRLHS
notes: Vps23A/ELC, Arabidopsis thaliana, locus AT3G12400; Vector: in-house pRHisMBP; it may also add a His tag; source: E. coli BL21(DE3) pLysS, purified (amylose resin); not shown: MBP, N-terminal, kept
